For the data set, the target named is T1, recombinant purified full length SRF (pET-15b, histidine tag, expressed in BL21).
T1 chain: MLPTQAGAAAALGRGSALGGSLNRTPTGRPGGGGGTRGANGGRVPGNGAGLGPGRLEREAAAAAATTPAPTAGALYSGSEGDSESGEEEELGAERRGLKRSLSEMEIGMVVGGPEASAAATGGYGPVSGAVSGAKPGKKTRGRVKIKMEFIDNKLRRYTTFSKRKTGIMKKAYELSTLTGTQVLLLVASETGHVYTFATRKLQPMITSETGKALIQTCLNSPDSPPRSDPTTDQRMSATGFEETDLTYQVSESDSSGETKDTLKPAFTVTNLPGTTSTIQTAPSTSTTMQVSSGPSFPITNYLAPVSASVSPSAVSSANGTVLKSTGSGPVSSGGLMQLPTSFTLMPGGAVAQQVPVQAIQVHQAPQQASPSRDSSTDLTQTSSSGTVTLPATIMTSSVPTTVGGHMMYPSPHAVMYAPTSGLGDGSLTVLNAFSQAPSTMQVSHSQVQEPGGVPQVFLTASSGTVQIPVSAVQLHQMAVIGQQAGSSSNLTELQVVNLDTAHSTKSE

B1: active recombinant human caspase 3 (BD PharMingen) (protein)
chain: SGISLDNSYKMDYPEMGLCIIINNKNFHKSTGMTSRSGTDVDAANLRETFRNLKYEVRNKNDLTREEIVELMRDVSKEDHSKRSSFVCVLLSHGEEGIIFGTNGPVDLKKITNFFRGDRCRSLTGKPKLFIIQACRGTELDCGIETDSGVDDDMACHKIPVEADFLYAYSTAPGYYSWRNSKDGSWFIQSLCAMLKQYADKLEFMHILTRVNRKVATEFESFSFDATFHAKKQIPCIVSMLTKELYFYH
Regarding B1, the “in vitro cleavage of SRF, read by Western blot” value was “Caspase 3 cleaved SRF in a time-dependent manner”.

Source of the values: US20040214771.
